# Tests used:
# [1] = molecular target: T1, recombinant soluble murine TL1A (mouse, UniProt Q5UBV8 75-252); assay: SPR, IgG captured on anti-hIgG, TL1A injected;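 also: biacore measurement on a carboxymethylated dextran chip, double-referenced against a control surface and buffer, rates fitted to a one-to-one binding model, KD from koff over kon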
# T1 construct: also called murine rsTL1A; mouse TL1A
# T1 chain: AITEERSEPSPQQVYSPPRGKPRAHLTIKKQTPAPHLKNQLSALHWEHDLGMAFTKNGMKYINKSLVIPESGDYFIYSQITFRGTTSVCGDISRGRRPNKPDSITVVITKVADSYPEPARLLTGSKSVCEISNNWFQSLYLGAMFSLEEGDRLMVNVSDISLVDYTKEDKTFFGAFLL
# [2] = molecular target: T2, recombinant soluble human TL1A (human, UniProt O95150 71-251); assay: cell-based or functional assay
# T2 sequence: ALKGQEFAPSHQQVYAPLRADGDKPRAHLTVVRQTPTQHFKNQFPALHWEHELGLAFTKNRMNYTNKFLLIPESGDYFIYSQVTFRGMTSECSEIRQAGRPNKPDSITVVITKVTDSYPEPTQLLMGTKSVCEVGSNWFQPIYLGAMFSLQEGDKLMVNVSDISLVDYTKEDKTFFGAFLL
# [3] = molecular target: T2, recombinant soluble human TL1A; assay: SPR, IgG captured on anti-hIgG, TL1A injected; off rate too slow to measure;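 as to koff: biacore T-200 with CM5 chip, anti-human IgG surface capturing under 30 RU of IgG, reference flow cell subtracted, running buffer PBS with 300 mM NaCl, EDTA and Tween20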;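 as to kon: biacore T-200 with CM5 chip, anti-human IgG surface capturing under 30 RU of IgG, reference flow cell subtracted, running buffer PBS with 300 mM NaCl, EDTA and Tween20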
# [4] = molecular target: T3, recombinant soluble cynomolgus monkey TL1A (cynomolgus monkey, UniProt O95150 72-251 (human entry)); assay: SPR, IgG captured on anti-hIgG, TL1A injected;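 also: biacore surface plasmon resonance on a dextran sensor chip, double-referenced sensorgrams fitted to a one-to-one binding model, KD taken as dissociation over association rate constant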
# T3 construct: also called cyno rsTL1A; cyno TL1A
# T3 chain: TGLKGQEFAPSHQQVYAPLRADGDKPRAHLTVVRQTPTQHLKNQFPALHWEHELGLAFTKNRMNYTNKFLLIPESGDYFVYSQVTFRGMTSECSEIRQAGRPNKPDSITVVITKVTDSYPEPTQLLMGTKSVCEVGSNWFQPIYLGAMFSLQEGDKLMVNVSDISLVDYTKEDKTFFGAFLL
# From the text: The antibodies were captured via directly immobilized anti-human IgG (GE Healthcare) onto a carboxymethylated dextran sensor chip surface (CM5) using a Biacore T100 or T200 instrument. Anti-human IgG was immobilized through amine coupling to densities of approximately 4,000-13,000 response units (RU). […] At the end of each cycle, the entire anti-hIgG surface was regenerated by a 30-second pulse of 3M MgCl₂ followed by two consecutive 15-second pulses of PBS-NET. […] All injections were performed at 25° C. at a collection rate of 10 Hz. All sensorgrams were double referenced by using both a control surface and buffer injections. Rate constants were determined by fitting the data to a 1:1 model in Biacore T100, T200 evaluation software v1.0, or BIAevaluation software v4.1.1 and the equation KD=Kd/kₐ.
# At the highest cytokine concentrations, the dissociation phase was sometimes extended to 60 minutes to achieve at least a 5% decrease in binding signal.
# [5] = molecular target: T2, recombinant soluble human TL1A; assay: KinExA, equilibrium in solution
# Method: This assay involves pre-incubating antibody: antigen mixtures in solution long enough to reach equilibrium before measuring the level of unbound antibody using a solid phase component. […] Beads were blocked for 1 hour with PBS plus 10 mg/ml bovine serum albumin (bovine serum albumin, Sigma) at room temperature before being diluted up to a total of 27 ml in PBS. […] For each titration series, a buffer sample and a sample of antibody alone were included. Each antibody: TL1A mixture was tumbled at room temperature for at least six hours to reach equilibrium and then each mixture was injected over the solid phase of TL1A-coated beads in the instrument flow cell. […] Beads were replenished between each sample. Binding signals of detected free antibody were converted to percentage of free, unbound antibody as measured by the antibody only sample and plotted versus each concentration of TL1A. For each antibody, the KD and ABC controlled curves were fit simultaneously using n-Curve Analysis software v3.1.4 to fit the curves to the ‘affinity, unknown ligand’ model and measure an equilibrium KD.
# Solution-based kinetic exclusion assays (KinExA) were carried out as an orthogonal technique to measure equilibrium KD values.
# [6] = molecular target: T2, recombinant soluble human TL1A; assay: SPR, IgG captured on anti-hIgG, TL1A injected;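 also: biacore T-200 with CM5 chip, anti-human IgG surface capturing under 30 RU of IgG, reference flow cell subtracted, running buffer PBS with 300 mM NaCl, EDTA and Tween20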
# Method: Biacore analysis was performed using T-200 biosensor, series S CM5 chips and approximately 4000 RU (response units) of an anti-human IgG (GE Healthcare), immobilized in 10 mM sodium acetate immobilization buffer at pH 5.0. Assay conditions were established to minimize the influence of mass transfer, avidity, and rebinding events, as described below. A blank immobilization was carried out on a separate flow cell for reference subtraction. The purified IgGs were diluted in running buffer (PBS, 300 mM sodium chloride, 3.2 mM ethylenediaminetetraacetic acid, 0.01% Tween20) and low levels (<30 RU) captured using a flow rate of 100 μl/min for 2 min, to reduce possible rebinding by the trimeric TL1A. […] Reference-subtracted sensorgrams for each concentration were analyzed using Biacore T-200 evaluation software (v1.0).
Binder,Kd [6] [pM],koff [6] [s⁻¹],kon [6] [M⁻¹ s⁻¹],also measured
"1D1 1.28 (antibody, human IgG1, kappa, V domains shown, Expressed as IgG1; also called 1D1 1.28-hIgG1-3m) VH: QVQLVQSGAEVKKPGASVKVSCKASGYDFTYYGISWVRQAPGQGLEWMGWISTYNGNKHYARMLQGRVTMTTDTSTRTAYMELRSLRSDDTAVYYCARENYYGSGSYRGGMDVWGQGTTVTVSS VL: EIVLTQSPATLSLSPGERATLSCRASQSVSSYLAWYQQKPGQAPRLLIYDASNRATGIPARFSGSGSGTDFTLTISSLEPEDFAVYYCQQRSNWPWTFGQGTKVEIKR",,,,"Kd [1]: ~1530 pM; koff [1]: 0.00032 s⁻¹; kon [1]: 210000 M⁻¹ s⁻¹; t1/2 [1]: 0.602 h; Caspase Assay, average IC50 [2]: 96.2 pM; NFkB Assay, average IC50 [2]: 189 pM; Kd [3]: < 100 pM; Kd [4]: 144 pM; koff [4]: 5.4e-05 s⁻¹; kon [4]: 380000 M⁻¹ s⁻¹; t1/2 [4]: 3.59 h; Kd [5]: 2.52 pM"
"1D1 1.29 (antibody, human IgG1, kappa, V domains shown, Expressed as IgG1) VH: QVQLVQSGAEVKKPGASVKVSCKASGYDFTYYGISWVRQAPGQGLEWMGWISTYNGGTHYARMLQGRVTMTTDTSTRTAYMELRSLRSDDTAVYYCARENYYGSGSYRGGMDVWGQGTTVTVSS VL: EIVLTQSPATLSLSPGERATLSCRASQSVSSYLAWYQQKPGQAPRLLIYDASNRATGIPARFSGSGSGTDFTLTISSLEPEDFAVYYCQQRSNWPWTFGQGTKVEIKR",,,,"Kd [1]: 2860 pM; koff [1]: 0.0007 s⁻¹; kon [1]: 260000 M⁻¹ s⁻¹; t1/2 [1]: 0.263 h; Caspase Assay, average IC50 [2]: 85 pM; NFkB Assay, average IC50 [2]: 281 pM; Kd [3]: < 100 pM; Kd [4]: 92 pM; koff [4]: 4.5e-05 s⁻¹; kon [4]: 490000 M⁻¹ s⁻¹; t1/2 [4]: 4.32 h; Kd [5]: 19.4 pM"
"1D1 Fab (Fab, V domains shown, Made from 1D1 IgG by papain; also called Fab of 1D1) VH: QVQLVQSGAEVKKPGASVKVSCKASGYSFTYYGISWVRQAPGQGLEWMGWISTYNGNTNYARMLQGRVTMTTDTSTRTAYMELRSLRSDDTAVYYCARENYYGSGSYRGGMDVWGQGTTVTVSS VL: EIVLTQSPATLSLSPGERATLSCRASQSVSSYLAWYQQKPGQAPRLLIYDASNRATGIPARFSGSGSGTDFTLTISSLEPEDFAVYYCQQRSNWPWTFGQGTKVEIKR",,,,Kd [5]: 3000 pM
"1D1 D18 (antibody, V domains shown, IgG with triple mutant Fc as for 1D1 D37) VH: QVQLVQSGAEVKKPGASVKVSCKASGYSFTYYGISWVRQAPGQGLEWMGWISTYNGNTHYARMLQGRVTMTTDTSTRTAYMELRSLRSDDTAVYYCARENYYGSGSYRGGMDVWGQGTTVTVSS VL: EIVLTQSPATLSLSPGERATLSCRASQSVSSYLAWYQQKPGQAPRLLIYDASNRATGIPARFSGSGSGTDFTLTISSLEPEDFAVYYCQQRSNWPWTFGQGTKVEIKR",662,0.000473,717000,
"1D1 D28 (antibody, V domains shown, IgG with triple mutant Fc as for 1D1 D37) VH: QVQLVQSGAEVKKPGASVKVSCKASGYSFTYYGISWVRQAPGQGLEWMGWISTYNGKTHYARMHQGRVTMTTDTSTRTAYMELRSLRSDDTAVYYCARENYYGSGSYRGGMDVWGQGTTVTVSS VL: EIVLTQSPATLSLSPGERATLSCRASQSVSSYLAWYQQKPGQAPRLLIYDASNRATGIPARFSGSGSGTDFTLTISSLEPEDFAVYYCQQRSNWPWTFGQGTKVEIKR",527,0.000568,1.09e+06,
"1D1 D29 (antibody, V domains shown, IgG with triple mutant Fc as for 1D1 D37) VH: QVQLVQSGAEVKKPGASVKVSCKASGYSFTYYGISWVRQAPGQGLEWMGWISSYNGNTHYARMLQGRVTMTTDTSTRTAYMELRSLRSDDTAVYYCARENYYGSGSYRGGMDVWGQGTTVTVSS VL: EIVLTQSPATLSLSPGERATLSCRASQSVSSYLAWYQQKPGQAPRLLIYDASNRATGIPARFSGSGSGTDFTLTISSLEPEDFAVYYCQQRSNWPWTFGQGTKVEIKR",705,0.000712,1.01e+06,
"1D1 D31 (antibody, V domains shown, IgG with triple mutant Fc as for 1D1 D37) VH: QVQLVQSGAEVKKPGASVKVSCKASGYSFTYYGISWVRQAPGQGLEWMGWISTYNGNKHYARMLQGRVTMTTDTSTRTAYMELRSLRSDDTAVYYCARENYYGSGSYRGGMDVWGQGTTVTVSS VL: EIVLTQSPATLSLSPGERATLSCRASQSVSSYLAWYQQKPGQAPRLLIYDASNRATGIPARFSGSGSGTDFTLTISSLEPEDFAVYYCQQRSNWPWTFGQGTKVEIKR",518,0.00042,822000,
"1D1 DH8 (antibody, V domains shown, IgG with triple mutant Fc as for 1D1 D37) VH: QVQLVQSGAEVKKPGASVKVSCKASGYSFTYYGISWVRQAPGQGLEWMGWISAYNGNTHYARMLQGRVTMTTDTSTRTAYMELRSLRSDDTAVYYCARENYYGSGSYRGGMDVWGQGTTVTVSS VL: EIVLTQSPATLSLSPGERATLSCRASQSVSSYLAWYQQKPGQAPRLLIYDASNRATGIPARFSGSGSGTDFTLTISSLEPEDFAVYYCQQRSNWPWTFGQGTKVEIKR",924,0.000896,977000,
"1D1 DH9 (antibody, V domains shown, IgG with triple mutant Fc as for 1D1 D37) VH: QVQLVQSGAEVKKPGASVKVSCKASGYSFTYYGISWVRQAPGQGLEWMGWISPYNGKTHYARMLQGRVTMTTDTSTRTAYMELRSLRSDDTAVYYCARENYYGSGSYRGGMDVWGQGTTVTVSS VL: EIVLTQSPATLSLSPGERATLSCRASQSVSSYLAWYQQKPGQAPRLLIYDASNRATGIPARFSGSGSGTDFTLTISSLEPEDFAVYYCQQRSNWPWTFGQGTKVEIKR",840,0.000866,1.04e+06,
"1D1 DH10 (antibody, V domains shown, IgG with triple mutant Fc as for 1D1 D37) VH: QVQLVQSGAEVKKPGASVKVSCKASGYSFTYYGISWVRQAPGQGLEWMGWISTYNGNTNYARMLQGRVTMTTDTSTRTAYMELRSLRSDDTAVYYCARENYYGSGAYRGGMDVWGQGTTVTVSS VL: EIVLTQSPATLSLSPGERATLSCRASQSVSSYLAWYQQKPGQAPRLLIYDASNRATGIPARFSGSGSGTDFTLTISSLEPEDFAVYYCQQRSNWPWTFGQGTKVEIKR",588,0.0005,853000,

# Further lines, with some results ahead:
Kd [6] [pM],koff [6] [s⁻¹],kon [6] [M⁻¹ s⁻¹],Binder,also measured
625,0.000478,776000,"1D1 D5 (antibody, V domains shown, IgG with triple mutant Fc as for 1D1 D37) VH: QVQLVQSGAEVKKPGASVKVSCKASGYSFTYYGISWVRQAPGQGLEWMGWISTYNGNTNYARMLQGRVTMTTDTSTRTAYMELRSLRSDDTAVYYCARENYYGSGAFRGGMDGWGQGTTVTVSS VL: EIVLTQSPATLSLSPGERATLSCRASQSVSSYLAWYQQKPGQAPRLLIYDASNRATGIPARFSGSGSGTDFTLTISSLEPEDFAVYYCQQRSNWPWTFGQGTKVEIKR",
709,0.00052,745000,"1D1 D21 (antibody, V domains shown, IgG with triple mutant Fc as for 1D1 D37) VH: QVQLVQSGAEVKKPGASVKVSCKASGYSFTYYGISWVRQAPGQGLEWMGWISTYNGKTHYARMLQGRVTMTTDTSTRTAYMELRSLRSDDTAVYYCARENYYGSGSYRGGMDVWGQGTTVTVSS VL: EIVLTQSPATLSLSPGERATLSCRASQSVSSYLAWYQQKPGQAPRLLIYDASNRATGIPARFSGSGSGTDFTLTISSLEPEDFAVYYCQQRSNWPWTFGQGTKVEIKR",
453,0.000387,868000,"1D1 D25 (antibody, V domains shown, IgG with triple mutant Fc as for 1D1 D37) VH: QVQLVQSGAEVKKPGASVKVSCKASGYSFTYYGISWVRQAPGQGLEWMGWISTYNGATHYARMLQGRVTMTTDTSTRTAYMELRSLRSDDTAVYYCARENYYGSGSYRGGMDVWGQGTTVTVSS VL: EIVLTQSPATLSLSPGERATLSCRASQSVSSYLAWYQQKPGQAPRLLIYDASNRATGIPARFSGSGSGTDFTLTISSLEPEDFAVYYCQQRSNWPWTFGQGTKVEIKR",

# — patent US20260210971A1 (Pfizer, published 2026)
